{
  "source": "paper PMC4908968",
  "key": {"[1]": {"target": "Full-length (FL) MMTV integrase (IN), wild type (mouse mammary tumor virus (MMTV))", "test": "SEC"}, "[2]": {"target": "Full-length (FL) MMTV integrase (IN), wild type (mouse mammary tumor virus (MMTV))", "test": "AUC"}},
  "data": [
    {"substance": "Full-length (FL) MMTV integrase (IN), wild type (enzyme)", "values": [
      {"measurement": "stoichiometry N", "setting": "[1]", "value": 2},
      {"measurement": "stoichiometry N", "setting": "[2]", "value": 8}
    ]}
  ]
}
